Measured values published in article PMC12389442, “Towards a Consensus for the Analysis and Exchange of TFA as a Counterion in Synthetic Peptides and Its Influence on Membrane Permeation” (Pharmaceuticals, 2025).
Blank lines part the entries; values can stand above or below the compound they belong to.

Experiments:
[1] = direct pH measurement of aqueous peptide salt solutions; assay type: physicochemical; conditions: before exchange (TFA salt), about 2–2.4 mg/mL peptide salt
Text: Direct pH measurements of aqueous solutions of peptides present as TFA, as well as Cl salts, were acidic in a pH range below 3 (exact values can be found in the Supporting Information). […] Strong counterions as Cl^− and TFA^− may shield the positive charges and hydrogen bond donors, facilitating permeation as a net neutral complex. The complex then dissociates in the unbuffered internal liposomal phase, into a weak base (peptide) and a strong acid (HCl or TFA), resulting in the release of protons leading to acidification and a decrease in fluorescence. This assumption would align with the concept of hydrophobic ion pairing, described to enhance the membrane permeability of charged molecules in drug delivery. Our findings confirm results of previous studies that counterions cannot be neglected and the salt form might affect the membrane permeation behavior of peptides, among other things. Given that counterions are often unreported in the literature, we herein emphasize the need for explicit consideration and clarification in peptide-based permeation assays and further functional studies.
Table S8: pH measurements of AT1-4 peptide salt in aq. solution after exchange and lyophilization
Before Conc. peptide 2.38 2.38

[2] = peptide integrity during counterion exchange with aq. HCl, HPLC-UV; assay type: physicochemical
Experimental: As degradation issues in aqueous acidic solutions have been reported previously, the integrity of AT 1 during counterion exchange with the different concentrations of HCl was measured with HPLC-UV. […] Similar results could be found for all other peptides under investigation (Supplementary Materials Section S3). […] Nevertheless, the stability of the peptide as well as the counterion exchange efficacy may vary, depending on the peptide sequence. Therefore, the TFA^− content as well as the purity should always be confirmed after counterion exchange.
For the counterion exchange of TFA^− with Cl^−, the peptide salt was dissolved in a diluted aqueous HCl solution at a concentration of 1 mg/ml. […] To evaluate the influence of the peptide sequence, counterion exchange was also performed for AT 2, AT 3, and AT 4 with the optimally determined salt concentration of 10 mM. […] For all peptide samples, the content of counterions was measured by FT-IR, ^19F-NMR, and HPLC-ELSD before the exchange as well as after each lyophilization cycle (Ex 0, Ex 1, Ex 2, and Ex 3). […] HPLC-ELSD samples containing 0.75 mg/mL peptide salt in H2O were measured in triplicate with an injection volume of 5 and 20 µL. The purity of the samples was monitored during the counterion exchange with a 0.25 mg/mL peptide salt solution according to the purity method described below. […]

[3] = counterion (TFA−, Cl−, Na+) content of peptide salt by HPLC-ELSD during HCl exchange; assay type: physicochemical
Experimental: The TFA^− content in samples was quantified using three analytical methods, namely FT-IR, ^19F-NMR, and HPLC-ELSD, adapted from previous publications. The methods are described in detail in the Supplementary Materials Section S2. In short, FT-IR spectra were recorded in aqueous solution at a wavelength from 4000 cm^−1 to 600 cm^−1 (PerkinElmer Inc., Waltham, MA, USA). The absorbance maxima in the TFA^− absorbance range of 1210 to 1190 cm^−1 were determined using Python (3.10.10, https://docs.python.org/3/reference (accessed 22 April 2024)). The ^19F-NMR (Bruker Avance III 400 MHz NMR spectrometer, Bremen, Germany) measurements were performed in 10% deuterium oxide (D2O; >99.9 atom% D, Apollo Scientific, Bredbury, United Kingdom) in H2O (nanopure water, in-house water purification system ELGA Purelab, Villmergen, Switzerland) and the signal areas were determined via auto-integration. The HPLC-ELSD (VWR ELITE Lachrome Series, Dietikon, Switzerland) method was used under isocratic conditions with a mobile phase consisting of 40% 20 mM ammonium formate (≥99%, Sigma Aldrich, Buchs, Switzerland) in H2O (pH 4.0) and 60% acetonitrile (ACN; HPLC gradient grade, ≥99.9%, Sigma Aldrich, Buchs, Switzerland). Separation was achieved on an Acclaim Trinity P1 column (3 mm × 100 mm, Thermo Fisher Scientific, Sunnyvale, CA, USA) allowing for the simultaneous detection of TFA^−, Cl^−, and Na^+. Retention times were determined by single injection of analytes and quantification performed via peak area. All analytical methods were validated according to the ICH guidelines. For each analysis method, calibrators with concentrations in the corresponding quantitative range for TFA^− (additionally, Na^+ and Cl^− for HPLC-ELSD) were prepared and aliquoted for each validation day (4 days for FT-IR and ^19F-NMR, 8 days for HPLC-ELSD). Quality control (QC) samples (QC low, med, and high) were prepared independently. All aliquots were stored at 5 °C. Over a period of 7 (FT-IR and ^19F-NMR) or 21 days (HPLC-ELSD), daily regression curves were determined using the generalized least squares regression model. For the ^19F-NMR and FT-IR method, a linear model was used, and for the HPLC-ELSD method a polynomial model. Weightings of x, 1/x, and 1/x^2 were considered for the calibration curves. The accuracy was determined by comparing the established concentration of the QC sample concentration and the theoretical concentration. Bias and intra- and inter-day precision (RSDR and RSDT) were calculated according to Peters et al.. […] The limit of detection (LoD) and limit of quantification (LoQ) for the FT-IR and ^19F-NMR methods were calculated according following ICH guidelines based on the standard deviation of the response and slope. As a quadratic regression curve was determined for the HPLC-ELSD method, LoD and LoQ were determined using the signal-to-noise approach. To assess the stability of the calibration curve, the concentration of the QCs for each day was recalculated with the calibration curve established on the first day and the bias was determined by comparison with the theoretical value calculated.
For the counterion exchange of TFA^− with Cl^−, the peptide salt was dissolved in a diluted aqueous HCl solution at a concentration of 1 mg/ml. […] To evaluate the influence of the peptide sequence, counterion exchange was also performed for AT 2, AT 3, and AT 4 with the optimally determined salt concentration of 10 mM. […]

[4] = liposomal fluorescence assay (HPTS) for passive membrane permeation
Experimental: (§1) To investigate the influence of TFA^− and Cl^− as counterions on the membrane permeation of synthetic peptides, a liposomal fluorescence assay was performed as previously described [37, 38]. The assay relies on the change in fluorescence of HPTS correlating to the liposomal internal pH change altered by permeation of an acidic or basic compound across the phospholipid bilayer. […] We first evaluated the impact of counterions on the permeation kinetics of the CPPs. Fitted biexponential curves and calculated log Permapp values are shown if the obtained normalized RMSE was <0.10. […] Control experiments with TFA and HCl are also shown for reference. […] To complement the CPP study, we also investigated peptides AT 1–4 in the permeation assay.
(§2) To investigate the influence of the counterions on the membrane permeability of peptides, a liposomal fluorescence assay was performed using a previously described method adapted to a plate reader [37, 38].

[5] = cited from earlier work
[6] = at the concentrations used in the liposomal assay; cited from earlier work
[7] = not told
Experimental: as §1, §2

Compound: H2N-DRVYIHPF-COOH (H-DRVYIHPF-OH) [AT 2, angiotensin peptide synthesized by SPPS]
- pH of peptide salt in aq. solution [1]: 2.63

Compound: H2N-RVYIHPF-COOH [AT 3]
- pH of peptide salt in aq. solution [1]: 2.63

Compound: H2N-DRVYIHPFHL-COOH (H-DRVYIHPFHL-OH) [AT 1, angiotensin model peptide synthesized by SPPS]
- degradation products during counterion exchange ([2]; HCl up to 100 mM): No degradation products were observed
- purity during counterion exchange (stability in aq. HCl) ([2]; all HCl concentrations (0–100 mM), over three exchange cycles): above 96%
- Cl− content relative to expected value based on stoichiometric exchange ([3]; 10 mM HCl, single cycle): 99.0%
- TFA− content of peptide salt ([3]; after one exchange cycle with 10 and 100 mM HCl, below LoQ of all techniques): below 1 % (w/w)
- TFA− content of peptide salt ([3]; after purification, before exchange, HPLC-ELSD): 0.333 ± 0.008 mg TFA^− per mg peptide salt
- TFA− content of peptide salt ([3]; control 0 mM HCl, after three exchange cycles): 0.215 ± 0.023 mg TFA^− per mg peptide salt
- Cl− content of peptide salt ([3]; exchanged with 10 mM HCl, after a single cycle): 0.098 mg per 1 mg peptide salt
- pH of peptide salt in aq. solution [1]: 2.59

- passive membrane permeation (qualitative) ([4]; Cl salt): did not detect permeation
- passive membrane permeation (qualitative) ([4]; TFA salt): showed passive permeation
- Log Permapp ([4]; TFA salt, 50 µM peptide solution added to liposomes, outer phase pH 6.0, 28.5 °C, ± standard error of the fit, n = 3): -6.913 ± 0.048 cm/s
Compound: H-LLIILRRRIRKQAHAHSK-OH [pVEC, H2N-LLIILRRRIRKQAHAHSK-COOH]
- hemolytic activity [5]: general hemolytic activity is described
- POPC membrane disruption [6]: no POPC membrane disruption was observed

- permeation kinetics / fluorescence change (qualitative) [7]: biexponential kinetics were observed
Compound: H-KETWWETWWTEWSQPKKKRKV-OH [Pep1]
- influence of type of counterion on passive permeation [7]: influence the amplitude of the permeation curve, although the overall log Permapp remained similar

- pH of peptide salt in aq. solution [1]: 2.39
Compound: H2N-VYIHPF-COOH [AT 4]

- influence of type of counterion on passive permeation [7]: unaffected by the type of counterion
- permeation kinetics / fluorescence change (qualitative) [7]: biexponential kinetics were observed
Compound: CC[C@H](C)[C@H](NC(=O)[C@H](CCCCN)NC(=O)[C@@H](NC(=O)[C@H](CCC(N)=O)NC(=O)[C@@H](N)CCCNC(=N)N)[C@@H](C)CC)C(=O)N[C@@H](Cc1c[nH]c2ccccc12)C(=O)N[C@@H](Cc1ccccc1)C(=O)N[C@@H](CCC(N)=O)C(=O)N[C@@H](CC(N)=O)C(=O)N[C@@H](CCCNC(=N)N)C(=O)N[C@@H](CCCNC(=N)N)C(=O)N[C@@H](CCSC)C(=O)N[C@@H](CCCCN)C(=O)N[C@@H](Cc1c[nH]c2ccccc12)C(=O)N[C@@H](CCCCN)C(=O)N[C@@H](CCCCN)C(N)=O [AntP, H2N-RQIKIWFQNRRMKWKK-CONH2]
